Measured values published in patent US7202050B2, “Methods for measuring phosphatase activity” (priority 2002, dated 2007).

Target: T1, V8 protease (Staphylococcus aureus, UniProt P0C1U8)
T1 construct: purchased CalBiochem (San Diego, Calif.)
Assay type: biochemical
Details: 30 μM peptide pre-incubated with 40 units CKII 18 hrs at 30° C. in absence of ATP; 1 unit V8 protease, room temperature, in less than three hours; HPLC (FIG. 3)
Description: The peptide (30 μM) was incubated at room temperature with V8 protease (0.1 units) in a buffer containing 20 mM Tris-HCl, 50 mM KCl, 10 mM MgCl2, pH 7.5 (CKII buffer) and aliquots were removed at various time points and flash-frozen in a dry-ice/methanol bath. Products of the protease digestion were then separated on the HPLC column using a 0% to 50% acetonitrile/water gradient in the presence of 0.1% TFA. Peptide was detected using both absorbance at 250 nm and by fluorescence of the rhodamine label using 530 nm excitation and 590 nm emission filters.
Subsequently, 1 unit of V8 protease was added to each sample and the samples were incubated at room temperature. Aliquots were removed at various time points and flash-frozen in a dry-ice/methanol bath for HPLC analysis as described above.

T1 sequence (P0C1U8 69-336): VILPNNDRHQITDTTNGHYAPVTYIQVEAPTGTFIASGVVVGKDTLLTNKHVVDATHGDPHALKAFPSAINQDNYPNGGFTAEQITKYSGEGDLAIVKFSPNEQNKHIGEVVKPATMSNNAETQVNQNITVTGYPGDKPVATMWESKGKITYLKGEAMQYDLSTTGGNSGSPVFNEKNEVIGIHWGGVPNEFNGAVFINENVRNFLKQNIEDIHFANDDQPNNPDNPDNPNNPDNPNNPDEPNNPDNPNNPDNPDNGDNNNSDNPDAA

## TMR-Asp-Glu-Ser-Glu-Glu-Glu-Asp-Lys(Nε-Flsn)-COOH (tetramethylrhodamine-DESEEEDK(fluorescein)-OH) [unphosphorylated peptide]
  peptide digested by V8 protease: 80%
